Measurements reported in the supplement of paper PMC9732359.
± gives the uncertainty stated by the source.

Assay: protein stability index of a GFP-peptide fusion (yeast GPS) (PSI 1-4); higher = more stable; sorted into four equal gates, so the index is relative within each strain
Procedure, shortened: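 Tiled yeast protein peptides of 17 residues were each joined downstream of GFP, on plasmids that also express Cherry. The pooled library was maintained in yeast, and mid-log cultures in leucine-free medium were sorted into four equal gates on the GFP/Cherry ratio. Plasmids from every gate were amplified by PCR and sequenced on Illumina, with barcodes linking reads to strains. The protein stability index of a peptide is its gate-number-weighted read frequency summed over the gates.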

| Sequence | protein stability index (doa10∆) | protein stability index (pdr5∆) | protein stability index (san1∆) | protein stability index (ubr1∆) |
| --- | --- | --- | --- | --- |
| PLFIVEDDESLGHKELK [RPB2] | 3.34 ± 0.15 | 3.34 ± 0.15 | 2.77 ± 0.14 | 1.8 ± 0.097 |
| QFNKILPEPTEGFAADD [FAS1] | 2.79 ± 0.067 | 3.07 ± 0.08 | 2.91 ± 0.081 | 2.77 ± 0.11 |
| PRTLIGHRATVTDIAII [RPN14] | 3.24 ± 0.18 | 3.54 ± 0.2 | 3.29 ± 0.1 | 3.18 ± 0.094 |
| VMTYKGEVLGITRFGLS [RPO31] | 3.37 ± 0.16 |  | 3.09 ± 0.12 | 3.46 ± 0.29 |
| GGSRGGGSNYMSNLPFG [RPC31] | 2.94 ± 0.27 | 3.21 ± 0.18 |  | 3.14 ± 0.17 |
| QLLTPGSKISSNDLDKF [YGL172W/NUP49] | 2.88 ± 0.19 | 2.85 ± 0.084 | 3.13 ± 0.1 | 2.54 ± 0.2 |
| TAFQTQRTAQDRVQQDS [YML031W/NDC1] | 2.94 ± 0.086 | 2.62 ± 0.075 | 3.26 ± 0.076 | 2.35 ± 0.079 |
| VTKDTKKYSSKNKYGEI [SRP68] | 2.82 ± 0.11 | 2.66 ± 0.099 | 2.52 ± 0.086 | 2.77 ± 0.068 |
| SPIFEVLSDDAKKLSSF [ARP9] | 2.84 ± 0.062 | 3.19 ± 0.11 | 2.88 ± 0.058 | 3 ± 0.069 |
| WSFDLPEMSNLYRLSTP [PRP8] | 2.71 ± 0.049 | 2.71 ± 0.04 | 2.59 ± 0.038 | 2.67 ± 0.043 |
| EHWKVRNFKKANLVNKE [BRN1] | 2.06 ± 0.1 | 1.5 ± 0.051 | 1.54 ± 0.13 | 1.83 ± 0.05 |
| KDYEAKTKAMSLSIEEN [POP1] | 2.57 ± 0.13 | 2.55 ± 0.089 | 2.28 ± 0.082 | 2.95 ± 0.083 |
| NKYANNDFANNLPKEGD [CSL4] | 3.14 ± 0.067 | 3 ± 0.056 | 2.9 ± 0.065 | 2.4 ± 0.071 |
| VNNTRRRVYNRVLETTL [BRN1] | 2.5 ± 0.07 | 2.98 ± 0.094 | 2.87 ± 0.1 | 2.65 ± 0.11 |
| TNSPQISVTRQVVLGGT [SMC2] | 2.82 ± 0.078 | 3 ± 0.075 | 3.03 ± 0.064 | 2.67 ± 0.048 |
| ALVAYTPTDVIGVVSLT [RRP6] | 1.96 ± 0.091 | 1.57 ± 0.054 | 1.37 ± 0.11 | 1.93 ± 0.072 |
| EDCVEEFFHLQHYLDTA [QCR6] | 3.21 ± 0.085 | 3.4 ± 0.081 | 3.13 ± 0.063 | 3.31 ± 0.068 |
| VSLTKRKQEREITSLRQ [YIL149C/MLP2] | 2.03 ± 0.2 | 2.32 ± 0.14 | 2.45 ± 0.14 | 2.35 ± 0.071 |
| QIKTLPEQYSDILLNER [AAR2] | 2.96 ± 0.077 | 3.24 ± 0.06 | 3.14 ± 0.077 | 2.95 ± 0.072 |
| GGHSLEEISFSLSEGCD [PRP28] | 2.17 ± 0.11 | 2.42 ± 0.067 | 1.93 ± 0.13 | 2.25 ± 0.094 |
| IQEQRVKDKQSKVSDDS [RPN8] | 1.97 ± 0.11 | 2.79 ± 0.13 |  | 2.92 ± 0.13 |
| CILYDADESKMAKLNEC [RET1] | 2.28 ± 0.062 | 1.99 ± 0.06 | 2.32 ± 0.1 | 1.76 ± 0.055 |
| HVLKKNPLKNKQVLLRL [RPL4A] | 1.43 ± 0.15 | 1.79 ± 0.086 | 1.3 ± 0.13 | 2.38 ± 0.088 |
| LGIEAARYSIIREINYT [RPO31] | 1.76 ± 0.13 | 1.66 ± 0.12 | 1.31 ± 0.24 | 1.53 ± 0.12 |
| NPNTNTNSNNTPLQSQL [PGD1] | 2.91 ± 0.071 | 2.96 ± 0.066 | 2.88 ± 0.058 | 2.98 ± 0.07 |

| Sequence | protein stability index (doa10∆) | protein stability index (pdr5∆) | protein stability index (san1∆) | protein stability index (ubr1∆) |
| --- | --- | --- | --- | --- |
| TGSDREVQRILIELLTQ [RPT3] | 3.02 ± 0.14 |  |  | 3.5 ± 0.23 |
| QSSESFDDSDITKFALF [YML103C/NUP188] | 2.44 ± 0.1 | 2.23 ± 0.071 | 2.48 ± 0.083 | 2.46 ± 0.075 |
| SNYAASNSMDRSSSASN [SWI1] | 2.79 ± 0.14 | 2.7 ± 0.089 | 2.88 ± 0.07 | 2.84 ± 0.093 |
| KSMELFYDIRSLLERHI [YJL039C/NUP192] | 2.84 ± 0.044 | 2.99 ± 0.038 | 2.91 ± 0.04 | 3.07 ± 0.046 |
| LLIDQFSPVISQSLTSI [SWI1] | 1.64 ± 0.074 | 1.99 ± 0.067 | 1.64 ± 0.11 | 1.66 ± 0.064 |
| RLELLQLSPVKNSRVEL [SMC4] |  | 3.54 ± 0.25 | 3.22 ± 0.13 |  |
| SPLYMDTETFDTVNSAL [YML103C/NUP188] | 3.11 ± 0.14 | 3.27 ± 0.14 | 3.18 ± 0.074 | 3.21 ± 0.058 |
| CYLRWQHLRNEHGMNAP [SNF2] | 3.15 ± 0.072 | 3.33 ± 0.1 | 3.4 ± 0.087 | 2.9 ± 0.066 |
| KYLGLKPGSIDAISQVI [FAS1] | 3.1 ± 0.081 | 3.1 ± 0.075 | 2.91 ± 0.048 | 3.01 ± 0.061 |
| ESVELPLTHPELYEEMG [RPT2] | 2.63 ± 0.077 | 2.94 ± 0.074 | 2.78 ± 0.07 | 2.74 ± 0.037 |
| SPLQKEEALNFDISMAD [SSN2] | 3.23 ± 0.058 | 3.07 ± 0.057 | 3.18 ± 0.07 | 3.25 ± 0.058 |
| SPYGNLQNDLIHKIQND [RPN5] | 2.02 ± 0.083 | 2.67 ± 0.053 | 2.82 ± 0.07 | 2.56 ± 0.058 |
| FTPEEEAAIRRENEWAE [SKP1] | 3.01 ± 0.11 | 3.25 ± 0.096 | 3.34 ± 0.063 | 3.3 ± 0.11 |
| RIDAFNALEHKYFTESD [SSN3] | 2.72 ± 0.055 | 3 ± 0.046 | 2.95 ± 0.05 | 3.05 ± 0.052 |
| RGFKVGLVCADTFRAGA [SRP54] | 2.19 ± 0.22 | 2.25 ± 0.081 |  | 2.23 ± 0.11 |
| KLSSAENANADLENKFN [YIL149C/MLP2] | 3.06 ± 0.063 | 3.31 ± 0.073 | 3.07 ± 0.062 | 3.1 ± 0.042 |
| EFLINEGTPINNVYFAA [RPN14] | 2.33 ± 0.07 | 2.17 ± 0.052 | 1.91 ± 0.087 | 1.94 ± 0.047 |
| ADAQIQRETYDSNESDD [YLR335W/NUP2] | 2.07 ± 0.22 | 3.38 ± 0.21 |  | 2.66 ± 0.21 |
| LARRTDAPFNKVVLKAL [RPL18A] | 1.22 ± 0.057 | 1.28 ± 0.048 | 1.18 ± 0.12 | 1.45 ± 0.068 |
| KRVVVPQALRVLRLKPG [RPL16A] | 3.05 ± 0.087 | 3.11 ± 0.1 | 3.15 ± 0.056 | 2.09 ± 0.12 |
| DGNNANYIYAGYENGML [RPN14] | 2.73 ± 0.1 | 2.75 ± 0.094 | 2.79 ± 0.083 | 2.96 ± 0.069 |
| VMLKGIVTALLESDVNI [SRP54] | 1.3 ± 0.054 | 1.22 ± 0.067 | 1.18 ± 0.14 | 1.16 ± 0.066 |
| RKKARTFDSSWNWAKQS [FAS2] | 1.79 ± 0.14 | 1.97 ± 0.12 | 2.32 ± 0.12 | 2.95 ± 0.074 |
| ELNSSEDILEDMNSNLQ [SMC1] | 3.38 ± 0.072 | 3.32 ± 0.072 | 3.24 ± 0.045 | 3.2 ± 0.054 |
| DIRDSSCQGNVIYRNSL [YMR129W/POM152] | 3.5 ± 0.22 | 3.21 ± 0.087 | 3.38 ± 0.06 | 3.37 ± 0.084 |

| Sequence | protein stability index (doa10∆) | protein stability index (pdr5∆) | protein stability index (san1∆) | protein stability index (ubr1∆) |
| --- | --- | --- | --- | --- |
| TDLGKDIPFFPSSEKPN [SSN2] | 2.7 ± 0.059 | 2.9 ± 0.077 | 2.57 ± 0.11 | 3.07 ± 0.037 |
| DENGDKNDNGGKMNNEV [SWI3] | 3.15 ± 0.084 | 3.41 ± 0.077 | 3.12 ± 0.044 | 3.33 ± 0.097 |
| KGVATTREKVLEDKLRA [RRP46] | 3.36 ± 0.15 | 3.16 ± 0.12 | 2.71 ± 0.23 | 3.04 ± 0.075 |
| VAIGNTYGFLTPNLWAE [RPS2] | 2.26 ± 0.073 | 2.49 ± 0.054 | 2.36 ± 0.089 | 2.43 ± 0.04 |
| ECLPAEGHDWKAPTKLD [DIS3] | 3.27 ± 0.098 | 3.21 ± 0.082 | 3.35 ± 0.071 | 3.23 ± 0.079 |
| HKSDVMSVDIDKKASMI [ASC1] | 3 ± 0.1 | 2.79 ± 0.083 | 2.48 ± 0.082 | 2.87 ± 0.11 |
| RSVRIPWYNNPVSCIIQ [PRP8] | 2.33 ± 0.1 | 2.19 ± 0.068 | 2.02 ± 0.16 | 2.55 ± 0.06 |
| PSKKRRRDFGAPANKRP [SMD1] | 2.57 ± 0.19 | 3.02 ± 0.1 | 3.16 ± 0.12 | 3.04 ± 0.09 |
| ITSNHKSSVPGSAELRN [RPN3] | 2.69 ± 0.087 | 3.25 ± 0.074 | 2.67 ± 0.069 | 2.63 ± 0.08 |
| EEDVYLDPLARVSKDKK [FAS2] | 3.5 ± 0.11 | 3.29 ± 0.11 | 3.46 ± 0.069 | 3.47 ± 0.061 |
| AKRHRKILRDNIQGITK [HHF1] | 3.01 ± 0.094 | 3.44 ± 0.098 | 3.21 ± 0.058 | 3.07 ± 0.069 |
| IKLSLKDKTKNISAEII [SMC4] | 2.84 ± 0.082 | 3.09 ± 0.08 | 3.04 ± 0.066 | 3.11 ± 0.082 |
| SESQLNSTLKKVESQET [YCS4] | 2.62 ± 0.18 | 3.4 ± 0.22 | 3.31 ± 0.1 | 3.04 ± 0.29 |
| ELDAQTLPGDDELDQEI [RPT5] | 3.32 ± 0.097 | 3.26 ± 0.12 | 3.44 ± 0.083 | 3.59 ± 0.094 |
| EKSGISKMSDESFAELM [RPC17] | 3.26 ± 0.14 |  | 3.27 ± 0.11 | 3.42 ± 0.2 |
| ALEFLNTTLQDNVSFIE [REC8] | 2.95 ± 0.072 | 3.27 ± 0.12 | 3.05 ± 0.11 | 2.87 ± 0.072 |
| KPGQNNRQQKKRRFDPS [RRP6] | 2.78 ± 0.089 | 2.99 ± 0.11 | 3.21 ± 0.13 | 2.56 ± 0.08 |
| IFERMIEKCLKASELKL [RPN2] | 2.17 ± 0.15 | 2.21 ± 0.099 |  | 1.85 ± 0.079 |
| LVYNMTSFEQGEITFDG [RPT4] | 2.65 ± 0.095 | 2.33 ± 0.079 | 2.97 ± 0.085 | 2.94 ± 0.17 |
| EDGTIESYNQNDWKLET [SIN4] | 3.29 ± 0.22 | 3.02 ± 0.2 | 3.22 ± 0.12 | 2.98 ± 0.11 |
| YHNKHMMCDFGTGNNNK [DIB1] | 2.7 ± 0.053 | 2.86 ± 0.055 | 2.73 ± 0.049 | 2.98 ± 0.041 |
| HVLVGDLIKFSAETLSE [FAS1] | 2.38 ± 0.1 | 2.78 ± 0.1 | 2.67 ± 0.1 | 2.79 ± 0.089 |
| DSNMDSISSVVSEDLLD [RPN4] | 2.3 ± 0.073 | 2.31 ± 0.056 | 2.76 ± 0.05 | 2.45 ± 0.032 |
| ENANADLENKFNRLKKQ [YIL149C/MLP2] | 3.06 ± 0.067 | 3.07 ± 0.057 | 3.09 ± 0.068 | 3 ± 0.037 |
